Positions count from the first letter of the chain named.
Assays:
[1] = molecular target: T1, recombinant human TL1A-his (processed secreted human TL1A with an N-terminal his-tag) (human, UniProt O95150 72-251); assay: SPR (BIAcore 2000), antibody captured on protein-A, his-tagged human TL1A as analyte
T1 construct: also called recombinant histidine tagged human TL1A; histidine-tagged human TL1A
T1 sequence: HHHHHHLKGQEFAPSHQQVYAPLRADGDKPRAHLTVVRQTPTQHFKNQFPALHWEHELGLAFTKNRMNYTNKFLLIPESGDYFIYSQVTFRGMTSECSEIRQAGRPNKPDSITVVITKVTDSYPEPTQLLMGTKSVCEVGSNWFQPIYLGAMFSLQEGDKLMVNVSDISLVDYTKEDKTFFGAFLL
Description: Kinetic binding affinity constants (KD) were measured on protein-A captured antibody using recombinant histidine tagged TL1A as analyte. Measurements were conducted on a BIAcore 2000 (GE Healthcare—BIAcore, GE Healthcare Europe GmbH, Glattbrugg, Switzerland) at room temperature, and analyzed with the BiaEvaluation software (BIAcore; v4.1. GE Healthcare Europe GmbH).
Following this capture step, the recombinant histidine tagged human TL1A was injected at different concentrations (1.25 to 125 nM) on the flow-path 1 and 2 (flow-path 1 being used as reference) at a 30 μl/min flow rate. After each binding event, surface was regenerated with glycine buffer pH 1.5 injected for 20 sec (30 μL/min).
Measurements (sensorgram: fc2-fc1) were best fitted with a 1:1 analyte model without mass transfer. To account for the experimental variations in protein-A captured antibody at the beginning of each measurement, the Rmax value was set to local in all fits. Dissociation times were of at least 300-600 seconds. Measurements were performed in duplicate and included zero-concentration samples for referencing. The Chi2 value represents the sum of squared differences between the experimental data and reference data at each point; while the plots of residuals indicate the difference between the experimental and reference data for each point in the fit. Both Chi2 and residual values were used to evaluate the quality of a fit between the experimental data and individual binding models.

[2] = molecular target: extracellular part of mouse (mus musculus) TL1A protein (mouse); assay: ELISA on coated extracellular part of TL1A (2 µg/mL), dose dilution of chimeric 5G6, HRP anti-human IgG
[3] = molecular target: T2, extracellular part of human (homo sapiens) TL1A protein (human, UniProt O95150 57-251); assay: as above
T2 construct: also called human TL1A
T2 sequence: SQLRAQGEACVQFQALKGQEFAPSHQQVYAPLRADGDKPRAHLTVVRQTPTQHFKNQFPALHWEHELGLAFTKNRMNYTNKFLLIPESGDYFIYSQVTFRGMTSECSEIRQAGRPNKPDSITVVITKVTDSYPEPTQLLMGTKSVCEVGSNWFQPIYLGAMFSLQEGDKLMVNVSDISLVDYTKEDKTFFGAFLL
Description: (§1) The reactivity of the parental 5G6 antibody (produced as a chimeric antibody with Human Fc) on the extracellular part of TL1A from diverse species was tested by ELISA. The extracellular part of TL1A protein corresponding to human (homo sapiens), rat (ratus norvegicus), mouse (mus musculus) and cynomologus monkey (macaca fascicularis) sequences (SEQ ID NOS: 38, 39, 40 and 41, respectively) was immobilized on high binding 96-well plates (Costar, USA; distributor VWR AG, Nyon, Switzerland) overnight at a concentration of 2 μg/mL at 4° C. in PBS. Plates were blocked with 2% BSA albumin (BSA, Sigma-Aldrich Chemie, Buchs, Switzerland) at RT for one hour. The blocking solution was removed and a dose dilution of 5G6 antibody was applied to the plates. Plates were incubated at RT for 60 minutes, washed six times with PBS 0.01% Tween-20 and the TMB substrate (Bio-rad Laboratories AG, Reinach, Switzerland) was added to the plates. […] The plates were read for absorbance at 450 nm by a microplate reader (Biotek, USA; distributor: WITTEC AG, Littau, Switzerland).

[4] = molecular target: T3, extracellular part of rat (ratus norvegicus) TL1A protein (rat, UniProt Q8K3Y7 61-252); assay: as above
T3 construct: also called rat TL1A
T3 sequence: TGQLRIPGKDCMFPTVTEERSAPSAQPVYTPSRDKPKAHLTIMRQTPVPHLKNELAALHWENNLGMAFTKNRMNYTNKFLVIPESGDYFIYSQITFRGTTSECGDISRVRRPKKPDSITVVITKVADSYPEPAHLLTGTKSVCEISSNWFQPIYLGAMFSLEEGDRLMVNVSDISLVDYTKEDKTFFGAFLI
Description: as §1

[5] = molecular target: T4, extracellular part of cynomologus monkey (macaca fascicularis) TL1A protein (cynomolgus monkey (macaca fascicularis), UniProt O95150 57-251 (human entry)); assay: as above
T4 construct: also called cyno TL1A; cynomologus monkey TL1A
T4 chain: T2 sequence with F13L, A15D, F54L, I93V
Description: as §1

B1: 5G6 chimeric antibody (murine 5G6 variable domains fused to human IgG1 heavy chain constant domains and a human kappa constant domain) (antibody, V domains shown)
VH: QVQLQQPGSVLVRPGASVKVSCKASGYTFTSSWMHWAKQRPGQGLEWIGEIHPNSGGTNYNEKFKGKATLTVDTSSSTAYVDLSSLTSEDSAVYYCARGDYYGYVSWFAYWGQGTLVTVSS
VL: DIQMNQSPSSLSASLGDTITITCHASQNINVLLSWYQQKPGNIPKLLIYKASNLHTGVPSRFSGSGSGTGFTFTISSLQPEDIATYYCQQGQSYPYTFGGGTKLEIKR
notes: Human IGHG1 / kappa chimera; also called Chimera; parental 5G6
Kd [1]: 728 pM
EC50 (read off the curve) [2]: 20 ng/mL
EC50 (read off the curve) [3]: ~3 ng/mL
EC50 (read off the curve) [4]: ~8 ng/mL
EC50 (read off the curve) [5]: ~3 ng/mL

B2: VH4/VL1 humanized 5G6 antibody (antibody, human IgG1, kappa, V domains shown)
VH: QVQLVQSGAEVKKPGASVKVSCKASGYTFTSSWMHWARQAPGQGLEWIGEIHPNSGGTNYAQKFQGRVTMTVDTSISTAYMELSRLRSDDTAVYYCARGDYYGYVSWFAYWGQGTLVTVSS
VL: B1 VL with N5T, L15V, T18R, I19V, H24Q, S34N, N42K, I43A, G70D, G100Q
Kd [1]: 681 pM

B3: VH3/VL1 humanized 5G6 antibody (antibody, human IgG1, kappa, V domains shown)
VH: B2 VH with V68A
VL: B1 VL with N5T, L15V, T18R, I19V, H24Q, S34N, N42K, I43A, G70D, G100Q
Kd [1]: 249 pM

B4: VH2/VL2 humanized 5G6 antibody (antibody, human IgG1, kappa, V domains shown)
VH: B2 VH with V68A, M70L, I76S
VL: B1 VL with L15V, T18R, I19V, H24Q, N42K, I43A, G70D, G100Q
Kd [1]: 857 pM

Reference: patent US20140308271A1 (GLENMARK PHARMACEUTICALS S A, published 2014)
